Experimental data from patent US20090191579A1 (PAIN THERAPEUTICS, published 2009).

Target: MAP1B, endogenous, rat striatum (rat, UniProt P15205 2-2461, limits assumed)
Experiment: co-immunoprecipitation (anti-Gα, then anti-MOR) from rat striatum, Western blot

MAP1B, endogenous, rat striatum, sequence (P15205 2-2461 limits assumed): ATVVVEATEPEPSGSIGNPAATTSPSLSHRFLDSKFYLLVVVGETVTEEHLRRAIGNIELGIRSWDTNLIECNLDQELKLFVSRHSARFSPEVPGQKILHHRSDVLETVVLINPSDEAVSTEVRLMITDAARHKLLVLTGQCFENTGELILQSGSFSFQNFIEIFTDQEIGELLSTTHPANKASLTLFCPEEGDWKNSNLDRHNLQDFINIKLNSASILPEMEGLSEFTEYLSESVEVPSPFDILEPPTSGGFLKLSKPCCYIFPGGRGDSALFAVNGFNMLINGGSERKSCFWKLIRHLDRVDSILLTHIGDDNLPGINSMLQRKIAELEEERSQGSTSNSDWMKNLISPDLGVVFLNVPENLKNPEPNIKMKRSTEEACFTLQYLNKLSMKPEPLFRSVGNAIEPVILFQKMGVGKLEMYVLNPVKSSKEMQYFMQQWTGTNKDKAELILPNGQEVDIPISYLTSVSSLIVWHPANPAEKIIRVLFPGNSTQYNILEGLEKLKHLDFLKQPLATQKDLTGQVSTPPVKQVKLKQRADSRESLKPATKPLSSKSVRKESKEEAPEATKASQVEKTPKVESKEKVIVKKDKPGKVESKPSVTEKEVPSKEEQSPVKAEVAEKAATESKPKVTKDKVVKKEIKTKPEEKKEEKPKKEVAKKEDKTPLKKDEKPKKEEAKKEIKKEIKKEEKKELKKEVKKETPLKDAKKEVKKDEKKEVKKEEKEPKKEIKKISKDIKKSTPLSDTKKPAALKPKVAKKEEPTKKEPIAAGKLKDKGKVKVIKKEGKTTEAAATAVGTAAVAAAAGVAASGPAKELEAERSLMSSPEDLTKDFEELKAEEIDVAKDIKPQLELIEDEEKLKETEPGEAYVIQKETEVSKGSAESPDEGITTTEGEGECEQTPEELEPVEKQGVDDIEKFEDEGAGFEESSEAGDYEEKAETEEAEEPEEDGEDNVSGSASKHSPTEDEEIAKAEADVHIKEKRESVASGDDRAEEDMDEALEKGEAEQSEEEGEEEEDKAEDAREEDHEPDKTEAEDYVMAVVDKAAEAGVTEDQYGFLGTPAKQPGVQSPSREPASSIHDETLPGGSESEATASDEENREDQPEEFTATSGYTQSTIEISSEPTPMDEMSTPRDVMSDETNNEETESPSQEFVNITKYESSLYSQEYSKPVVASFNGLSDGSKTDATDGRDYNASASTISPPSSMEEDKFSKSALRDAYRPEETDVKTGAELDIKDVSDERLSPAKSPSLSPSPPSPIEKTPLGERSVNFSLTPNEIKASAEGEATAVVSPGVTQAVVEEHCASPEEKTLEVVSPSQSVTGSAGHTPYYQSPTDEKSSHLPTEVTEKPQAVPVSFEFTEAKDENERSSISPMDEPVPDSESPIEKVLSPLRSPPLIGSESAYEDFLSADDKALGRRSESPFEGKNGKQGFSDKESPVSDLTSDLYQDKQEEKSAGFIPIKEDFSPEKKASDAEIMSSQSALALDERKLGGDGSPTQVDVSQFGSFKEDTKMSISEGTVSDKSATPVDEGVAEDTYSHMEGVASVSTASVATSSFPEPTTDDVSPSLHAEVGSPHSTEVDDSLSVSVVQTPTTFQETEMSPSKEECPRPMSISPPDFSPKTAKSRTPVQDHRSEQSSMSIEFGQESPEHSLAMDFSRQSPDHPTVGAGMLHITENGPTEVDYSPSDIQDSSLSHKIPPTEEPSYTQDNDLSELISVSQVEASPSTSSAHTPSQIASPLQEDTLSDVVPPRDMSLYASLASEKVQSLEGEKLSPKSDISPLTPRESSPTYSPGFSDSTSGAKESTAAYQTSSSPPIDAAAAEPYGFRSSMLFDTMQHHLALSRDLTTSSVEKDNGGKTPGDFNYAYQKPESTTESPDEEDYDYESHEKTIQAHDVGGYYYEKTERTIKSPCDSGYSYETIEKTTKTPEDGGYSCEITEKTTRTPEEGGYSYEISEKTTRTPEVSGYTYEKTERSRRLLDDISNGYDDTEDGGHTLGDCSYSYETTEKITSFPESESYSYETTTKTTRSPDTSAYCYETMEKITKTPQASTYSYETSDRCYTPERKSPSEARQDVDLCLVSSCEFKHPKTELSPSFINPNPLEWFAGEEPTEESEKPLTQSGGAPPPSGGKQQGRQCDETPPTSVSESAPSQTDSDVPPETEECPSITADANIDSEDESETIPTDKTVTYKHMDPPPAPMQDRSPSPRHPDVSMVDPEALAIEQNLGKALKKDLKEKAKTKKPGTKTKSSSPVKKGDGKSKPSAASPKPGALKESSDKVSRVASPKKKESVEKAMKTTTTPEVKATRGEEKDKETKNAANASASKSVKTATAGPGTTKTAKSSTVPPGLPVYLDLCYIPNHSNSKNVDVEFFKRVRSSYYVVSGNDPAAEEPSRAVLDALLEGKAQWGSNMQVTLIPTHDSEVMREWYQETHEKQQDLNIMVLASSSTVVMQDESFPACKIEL

- binding result: no binding
B1: mu opioid receptor (MOR), endogenous, rat striatum (receptor, UniProt P33535 1-398, looked up)
chain: MDSSTGPGNTSDCSDPLAQASCSPAPGSWLNLSHVDGNQSDPCGLNRTGLGGNDSLCPQTGSPSMVTAITIMALYSIVCVVGLFGNFLVMYVIVRYTKMKTATNIYIFNLALADALATSTLPFQSVNYLMGTWPFGTILCKIVISIDYYNMFTSIFTLCTMSVDRYIAVCHPVKALDFRTPRNAKIVNVCNWILSSAIGLPVMFMATTKYRQGSIDCTLTFSHPTWYWENLLKICVFIFAFIMPVLIITVCYGLMILRLKSVRMLSGSKEKDRNLRRITRMVLVVVAVFIVCWTPIHIYVIIKALITIPETTFQTVSWHFCIALGYTNSCLNPVLYAFLDENFKRCFREFCIPTSSTIEQQNSTRVRQNTREHPSTANTVDRTNHQLENLEAETAPLP
notes: Endogenous receptor immunoprecipitated with anti-MOR or detected with anti-MOR in anti-Gα immunoprecipitates; also called µ opioid receptor
